# Data published in US20240076389A1 (NATIONAL RESEARCH COUNCIL OF CANADA, published 2024).
# B1: NRC-sdAb001-Fc (VHH-human IgG1 Fc fusion) (Fc fusion)
# chain: QVKLEESGGGLVQAGGSLRLSCTASASISSFDIMGWYRQAPGKQRELVAAITTLDIANYRDSVKGRFTISRDNAKNTVYLQMDSLKPEDTARYHCAAFQSDQNYWGQGTQVTVSS
# notes: VHH fused N-terminally to human IgG1 Fc, made in HEK293 cells; also called NRC-sdAb0001-Fc; NRC-sdAb001-hIgG1; not shown: human IgG1 Fc
# B2: hFC-F107-10G1 (antibody, human IgG1, kappa, V domains shown)
# VH: EVNLVESGGGVVKPGASLKLSCEASGFTFSNYGMSWVRQTSDKRLEWVASISGGGGRTYYLDNVKGRFIISRENAKNTLYLQMSSLKSEDTALFYCARGARASYFAMDYWGQGSSVTVSS
# VL: VIVMTQSHKFMSTSVGDRVSITCKASQDVTTAVAWYQQKPGQSPKLLIYWASTRHTGVPDRFTGSGSGTDYSLTISNVQTEDLAFYYCQQHFTTPLTFGAGTKLELKR
# notes: Chimeric mAb, human IgG1 / human kappa constant regions; also called mAb F107-10G1
# Columns and labels:
# [1] = molecular target: T1, human AXL expressed on the cell surface of tumor cell lines (human, UniProt P30530 26-894); assay: FACS on NCI-H292 cells, apparent Kd, human Fc format
# T1 construct: whole, on cells; also called cell surface-expressed AXL; cell-based AXL
# T1 sequence (looked up): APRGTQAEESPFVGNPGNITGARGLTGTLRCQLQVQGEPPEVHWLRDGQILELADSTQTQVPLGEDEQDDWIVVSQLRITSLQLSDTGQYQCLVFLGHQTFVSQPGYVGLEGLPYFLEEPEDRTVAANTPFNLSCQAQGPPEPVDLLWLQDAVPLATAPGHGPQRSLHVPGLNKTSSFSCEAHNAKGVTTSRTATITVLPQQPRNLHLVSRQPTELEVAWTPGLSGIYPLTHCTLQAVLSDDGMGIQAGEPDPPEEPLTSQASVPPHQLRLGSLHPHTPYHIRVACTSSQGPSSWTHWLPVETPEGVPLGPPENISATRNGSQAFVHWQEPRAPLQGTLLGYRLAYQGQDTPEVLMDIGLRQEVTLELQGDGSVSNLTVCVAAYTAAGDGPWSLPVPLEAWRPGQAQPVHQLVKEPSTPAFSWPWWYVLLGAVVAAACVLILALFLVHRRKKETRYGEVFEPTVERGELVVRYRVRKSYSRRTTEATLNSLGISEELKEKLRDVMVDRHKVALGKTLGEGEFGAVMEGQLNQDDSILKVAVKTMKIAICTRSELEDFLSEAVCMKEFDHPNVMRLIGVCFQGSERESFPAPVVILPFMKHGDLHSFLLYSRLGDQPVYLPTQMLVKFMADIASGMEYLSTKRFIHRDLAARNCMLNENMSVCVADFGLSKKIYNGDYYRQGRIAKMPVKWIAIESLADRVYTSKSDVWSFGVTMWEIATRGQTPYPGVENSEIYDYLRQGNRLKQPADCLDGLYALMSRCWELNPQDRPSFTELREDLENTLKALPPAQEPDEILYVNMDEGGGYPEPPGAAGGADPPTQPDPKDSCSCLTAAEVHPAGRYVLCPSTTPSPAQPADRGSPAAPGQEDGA
# Experimental: FACS binding assay. Adherent cells were dissociated with non-enzymatic Sigma Cell Dissociation Solution (Cat. No. C5789). Cells suspensions were added to polypropylene, V-bottom 96-well plates and incubated for 2 hours on ice with primary antibodies at concentrations ranging from 100 nM to 0.001 nM or at a single dose of 100 nM (for the non-specific control). After incubation and washes, cells were incubated with fluorescently labeled secondary antibody (Alexa Fluor® 488 anti-human IgG from Jackson Cat. No 709-546-098) for 1 hour on ice, then washed. Cell viability was determined using Fixable viability dye 450 (20 min on ice). Stained cells were fixed in 1% formaldehyde at 4° C. and stored at 4° C. until acquisition which was performed the next day.
# Binding of recombinant chimeric Abs to three cell lines was assessed by FACS as described above. The apparent Bmax and Kd determination is shown below in Table 14.
# [2] = molecular target: T2, huMER-ECD displayed on yeast (human, UniProt Q12866 21-505); assay: yeast surface display ELISA, non-denatured yeast, goat anti-human F(ab')2-HRP
# T2 construct: extracellular domain
# T2 sequence (looked up): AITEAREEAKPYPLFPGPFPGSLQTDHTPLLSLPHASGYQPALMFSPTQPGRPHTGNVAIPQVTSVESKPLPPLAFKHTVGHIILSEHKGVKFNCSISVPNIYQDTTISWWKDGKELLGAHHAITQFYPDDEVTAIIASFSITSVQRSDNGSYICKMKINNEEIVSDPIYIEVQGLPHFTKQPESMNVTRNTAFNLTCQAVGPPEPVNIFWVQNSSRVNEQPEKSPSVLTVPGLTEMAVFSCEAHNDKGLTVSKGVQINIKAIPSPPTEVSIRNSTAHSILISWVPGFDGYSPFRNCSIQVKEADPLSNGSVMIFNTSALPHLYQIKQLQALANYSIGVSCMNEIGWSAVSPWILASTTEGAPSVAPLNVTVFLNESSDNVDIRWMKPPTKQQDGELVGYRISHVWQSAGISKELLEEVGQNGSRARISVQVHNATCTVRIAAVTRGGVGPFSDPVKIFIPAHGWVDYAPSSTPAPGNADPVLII
# [3] = molecular target: T3, recombinant human AXL extracellular domain, C-terminally His8-tagged (rhAXL-ECD) (human, UniProt P30530 26-451); assay: SPR Biacore T200, mAb captured on anti-Fc, AXL ECD flowed, multi-cycle kinetics
# T3 construct: Made in CHO cells; also called (rh)AXL-ECD His8; human AXL ECD
# T3 sequence: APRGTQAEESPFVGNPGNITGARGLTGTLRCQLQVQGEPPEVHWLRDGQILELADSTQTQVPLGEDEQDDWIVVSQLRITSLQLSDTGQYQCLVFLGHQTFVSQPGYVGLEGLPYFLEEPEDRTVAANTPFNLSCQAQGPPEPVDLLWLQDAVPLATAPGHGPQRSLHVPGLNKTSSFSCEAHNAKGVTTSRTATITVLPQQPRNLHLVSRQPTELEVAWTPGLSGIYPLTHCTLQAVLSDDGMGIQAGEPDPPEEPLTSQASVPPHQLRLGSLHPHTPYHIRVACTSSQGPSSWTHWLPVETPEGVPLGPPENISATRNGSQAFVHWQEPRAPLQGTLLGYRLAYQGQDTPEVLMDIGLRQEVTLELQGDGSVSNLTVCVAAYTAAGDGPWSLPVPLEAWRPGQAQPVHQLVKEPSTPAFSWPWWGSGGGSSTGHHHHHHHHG
# Experimental: (§1) Surface plasmon resonance. For murine mAbs, binding to human and cynomolgus AXL ECD was assessed using a Biacore T200 instrument. Briefly, either anti-mouse or anti-human Fc antibody was immobilized on a research-grade CM5 series S sensor chip using amine coupling in acetate buffer. Murine or recombinant chimeric murine-human mAbs (mouse VH/VL; human constant regions) were captured, then recombinant human or cyno AXL ECD was flowed over the surface at different concentration ranges (0.1-500 nM) depending on the antibody. The running buffer was PBS/Tween-20 and the flow rate 100 uL/min. All binding studies were performed at 25° C. Surfaces were regenerated using 10 mM glycine, pH 1.5.
# [4] = molecular target: T4, recombinant cynomolgus AXL extracellular domain (cynomolgus); assay: as above
# T4 construct: range 1-449; also called Cyno AXL; cyno AXL ECD
# Experimental: as §1
Binder,Kd [1] [pM],yeast ELISA signal normalized to myc expression level [2],Kd [3] [pM],koff [3] [s⁻¹],kon [3] [M⁻¹ s⁻¹],Kd [4] [pM],koff [4] [s⁻¹],kon [4] [M⁻¹ s⁻¹]
B1,105,–,–,–,–,–,–,–
B2,–,-0.02,400,0.00056,1.2e+06,200,0.00023,1.8e+06
